What was measured:
Assay in all cases: Kinase Profiling Assay
Assay type in all cases: biochemical
Details in all cases: 100 μM
CLK2(h) = CLK2(h) (Homo sapiens, UniProt P49760)
Yes(h) = Yes(h) (Homo sapiens, UniProt P07947)
IKKβ(h) = target: T1, IKKβ(h) (Homo sapiens, UniProt O14920)
T1 sequence (O14920 1-756): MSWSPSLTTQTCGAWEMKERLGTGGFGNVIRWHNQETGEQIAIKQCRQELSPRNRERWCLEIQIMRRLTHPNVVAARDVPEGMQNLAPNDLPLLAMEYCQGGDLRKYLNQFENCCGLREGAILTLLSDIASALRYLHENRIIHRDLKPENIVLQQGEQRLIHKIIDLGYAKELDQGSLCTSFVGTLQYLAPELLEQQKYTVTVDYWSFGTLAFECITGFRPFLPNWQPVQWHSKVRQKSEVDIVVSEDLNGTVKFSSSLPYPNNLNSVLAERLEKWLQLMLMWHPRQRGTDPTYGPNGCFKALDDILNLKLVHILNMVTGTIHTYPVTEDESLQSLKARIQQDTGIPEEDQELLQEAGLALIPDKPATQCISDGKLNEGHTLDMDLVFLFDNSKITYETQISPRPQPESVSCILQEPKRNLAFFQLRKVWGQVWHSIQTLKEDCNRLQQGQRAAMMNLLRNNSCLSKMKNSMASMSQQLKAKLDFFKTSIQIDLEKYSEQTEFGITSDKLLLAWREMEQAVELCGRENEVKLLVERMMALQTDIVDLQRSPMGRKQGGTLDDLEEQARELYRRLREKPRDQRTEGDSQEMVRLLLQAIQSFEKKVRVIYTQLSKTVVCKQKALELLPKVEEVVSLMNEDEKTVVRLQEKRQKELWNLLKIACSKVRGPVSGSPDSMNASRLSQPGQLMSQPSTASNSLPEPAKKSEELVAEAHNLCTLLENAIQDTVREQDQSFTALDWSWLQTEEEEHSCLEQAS

MEK1(h) = MEK1(h) (Homo sapiens, UniProt Q02750)
Ab1(Y253F)(h) = Ab1(Y253F)(h) (Homo sapiens, UniProt P00519, Y253F)

Sequence of CLK2(h) (P49760 whole entry): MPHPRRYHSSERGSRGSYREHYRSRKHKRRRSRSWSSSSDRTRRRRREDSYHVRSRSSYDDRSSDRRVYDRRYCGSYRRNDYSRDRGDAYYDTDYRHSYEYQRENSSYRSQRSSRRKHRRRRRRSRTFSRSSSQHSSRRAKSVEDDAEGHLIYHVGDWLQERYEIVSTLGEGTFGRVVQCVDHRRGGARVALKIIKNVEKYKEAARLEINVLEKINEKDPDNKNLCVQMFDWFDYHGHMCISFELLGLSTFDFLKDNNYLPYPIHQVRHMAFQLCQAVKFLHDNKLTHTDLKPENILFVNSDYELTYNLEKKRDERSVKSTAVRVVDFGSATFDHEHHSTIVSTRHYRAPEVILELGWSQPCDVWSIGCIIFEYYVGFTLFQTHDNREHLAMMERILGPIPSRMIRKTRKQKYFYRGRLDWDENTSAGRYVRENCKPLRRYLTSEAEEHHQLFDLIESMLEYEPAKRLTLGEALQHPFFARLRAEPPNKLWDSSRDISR
Sequence of Yes(h) (P07947 whole entry): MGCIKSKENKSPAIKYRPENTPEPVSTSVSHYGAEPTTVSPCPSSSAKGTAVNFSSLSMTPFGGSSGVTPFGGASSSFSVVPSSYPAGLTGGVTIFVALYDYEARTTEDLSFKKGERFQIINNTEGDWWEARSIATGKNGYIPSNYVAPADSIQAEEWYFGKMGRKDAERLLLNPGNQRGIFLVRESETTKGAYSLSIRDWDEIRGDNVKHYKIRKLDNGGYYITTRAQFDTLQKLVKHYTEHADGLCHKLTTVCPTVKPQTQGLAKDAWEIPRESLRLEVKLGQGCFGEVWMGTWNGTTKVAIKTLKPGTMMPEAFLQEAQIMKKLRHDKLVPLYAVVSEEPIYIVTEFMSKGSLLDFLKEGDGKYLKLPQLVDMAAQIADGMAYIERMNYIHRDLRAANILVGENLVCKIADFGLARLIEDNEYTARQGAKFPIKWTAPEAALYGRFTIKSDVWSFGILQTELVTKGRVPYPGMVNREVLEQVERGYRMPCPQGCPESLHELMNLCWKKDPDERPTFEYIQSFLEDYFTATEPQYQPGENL

Sequence | % activity (CLK2(h)) | % activity (Yes(h)) | % activity (IKKβ(h)) | % activity (MEK1(h)) | % activity (Ab1(Y253F)(h))
YARAAARQARAKALNRQLGVA (Mammalian) [MMI-0200] | 97% | 93% | – | – | –
HRRIKAWLKKIKALARQLGVAA (Mammalian) [MMI-0500] | – | – | 71% | 21% | 29%
